Assay results from patent EP4663662A1 (Shanghai Qilu Pharmaceutical Research and Development …, dated 2025).
Where two headings read alike, the source gives them in different places.

Columns and labels:
human BCMA [1] = biological target: T1, human BCMA (human, UniProt Q02223 1-184); experiment: flow cytometry, human BCMA-CHOK1 cells
T1 construct: On transfected CHOK1 cells; also called Human BCMA-CHOK1 cell line; Human BCMA CHOK1
T1 sequence: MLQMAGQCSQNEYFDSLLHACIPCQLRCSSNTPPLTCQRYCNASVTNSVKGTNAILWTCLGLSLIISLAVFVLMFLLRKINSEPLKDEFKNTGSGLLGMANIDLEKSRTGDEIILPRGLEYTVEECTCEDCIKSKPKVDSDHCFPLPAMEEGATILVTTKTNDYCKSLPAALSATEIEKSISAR

cynomolgus monkey BCMA [2] = biological target: T2, cynomolgus monkey BCMA (cynomolgus monkey, UniProt Q02223 1-184 (human entry)); experiment: flow cytometry, cynomolgus BCMA-CHOK1 cells
T2 construct: On transduced CHOK1 cells; also called cyno-BCMA; Cynomolgus monkey BCMA-CHOK1 cell line
T2 sequence (Q02223 other isoform, or with tags, fused parts or gaps): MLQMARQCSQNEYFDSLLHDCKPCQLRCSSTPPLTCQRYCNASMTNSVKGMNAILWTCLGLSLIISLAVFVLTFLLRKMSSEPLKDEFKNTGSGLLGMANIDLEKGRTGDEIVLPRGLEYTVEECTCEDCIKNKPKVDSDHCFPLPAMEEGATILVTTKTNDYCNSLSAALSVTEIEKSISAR

human BCMA [3] = biological target: T1, human BCMA; experiment: flow cytometry, human BCMA-CHOK1 cells; remark: listed apart in the source
cynomolgus monkey BCMA [4] = biological target: T2, cynomolgus monkey BCMA; experiment: flow cytometry, cynomolgus BCMA-CHOK1 cells; remark: listed apart in the source
human BCMA [5] = biological target: T1, human BCMA; experiment: flow cytometry, human BCMA-CHOK1 cells; remark: listed apart in the source
cynomolgus monkey BCMA [6] = biological target: T2, cynomolgus monkey BCMA; experiment: flow cytometry, cynomolgus BCMA-CHOK1 cells; remark: listed apart in the source

B1: 19CH-16 anti-BCMA chimeric antibody derived from mouse hybridoma (antibody, IgG1, V domains shown)
VH: QGQMQQSGAELVKPGTSVKLSCKTSGFTFRSSYISWLQQKPGQSLEWIAWIYAGSGNTDYNQKFTGKAQLTVDTSSSTAYMQFSSLTTEDSAIYYCARHYDPPHYFDYWGQGTTLTVSS
VL: QIVLTQSPAIMSASPGEKVTMTCSASSGVSHMHWYQQKSGTSPKRWIYDTSKLTSGVPTRFSGTGSGTSYSLSISSMEAEDAATYYCQQWSRNPWTFGGGTKLEIK
- EC50 (human BCMA [1]): 0.885 nM
- EC50 (cynomolgus monkey BCMA [2]): 1.22 nM

B2: 19CH-16H2L2 humanized anti-BCMA antibody (antibody, IgG1, V domains shown)
VH: QVQLVQSGAEVKKPGASVKVSCKASGFTFRSSYISWVRQAPGQGLEWIAWIYAGSGNTDYNQKFTGRVTMTVDTSTSTVYMELSSLRSEDTAVYYCARHYDPPHYFDYWGQGTLVTVSS
VL: DIQLTQSPSSLSASVGDRVTITCSASSGVSHMHWYQQKPGKAPKRWIYDTSKLTSGVPSRFSGSGSGTDFTLTISSLQPEDFATYYCQQWSRNPWTFGQGTKVEIK
- EC50 (human BCMA [3]): 2.13 nM
- EC50 (cynomolgus monkey BCMA [4]): 4.82 nM

B3: 19CH-16H2L2-NA humanized anti-BCMA antibody variant (antibody, IgG1, V domains shown)
VH: QVQLVQSGAEVKKPGASVKVSCKASGFTFRSSYISWVRQAPGQGLEWIAWIYAGSGNADYNQKFTGRVTMTVDTSTSTVYMELSSLRSEDTAVYYCARHYDPPHYFDYWGQGTLVTVSS
VL: DIQLTQSPSSLSASVGDRVTITCSASSGVSHMHWYQQKPGKAPKRWIYDTSKLTSGVPSRFSGSGSGTDFTLTISSLQPEDFATYYCQQWSRNPWTFGQGTKVEIK
- EC50 (human BCMA [5]): 2.15 nM
- EC50 (cynomolgus monkey BCMA [6]): 5.86 nM
